Assay results: patent publication US6867012B2, “Determination method of biological component and reagent kit used therefor” (Toyo Boseki Kabushiki Kaisha, priority 2000, dated 2005)

Test: Activity measurement of betaine-homocysteine methyltransferase (methionine produced, absorbance at 520 nm)
Assay type: biochemical
Conditions: 37° C., 1 h, pH 7.5; 1 U = 1 μmole of methionine per 1 h
Protocol: • reagent A 50 mM potassium phosphate buffer (pH 7.5) • reagent B 100 mM DL-homocysteine solution (dissolved in reagent A) • reagent C 100 mM betaine (dissolved in reagent A) • reagent D 0.2% aqueous pentacyanoanmineiron(III) sodium solution • reagent E acetic acid • reagent F 10% aqueous sodium nitrite solution <Measurement Conditions>
After the completion of the reaction, reagent D (5 ml) is added and the mixture is stirred. After standing for 1 min, 1 ml each of reagent E and reagent F were added in this order and the mixture is stirred. After standing for 30 min at room temperature, absorbance at 520 nm is measured. Using L-methionine dissolved in reagent A instead of the enzyme solution, absorbance is measured in the same manner and a standard curve is drawn, from which the amount of methionine produced by the enzymatic reaction is measured.

B1: betaine-homocysteine methyltransferase: Human-derived enzyme (EC 2.1.1.5) expressed from human liver cDNA in E. coli BL21(DE3) and purified (protein, UniProt Q93088 1-406, looked up)
Betaine--homocysteine …: MPPVGGKKAKKGILERLNAGEIVIGDGGFVFALEKRGYVKAGPWTPEAAVEHPEAVRQLHREFLRAGSNVMQTFTFYASEDKLENRGNYVLEKISGQEVNEAACDIARQVADEGDALVAGGVSQTPSYLSCKSETEVKKVFLQQLEVFMKKNVDFLIAEYFEHVEEAVWAVETLIASGKPVAATMCIGPEGDLHGVPPGECAVRLVKAGASIIGVNCHFDPTISLKTVKLMKEGLEAARLKAHLMSQPLAYHTPDCNKQGFIDLPEFPFGLEPRVATRWDIQKYAREAYNLGVRYIGGCCGFEPYHIRAIAEELAPERGFLPPASEKHGSWGSGLDMHTKPWVRARARKEYWENLRIASGRPYNPSMSKPDGWGVTKGTAELMQQKEATTEQQLKELFEKQKFKSQ
Question: For B1, which “specific activity of purified enzyme standard product” value is on record?
Answer: Its value is “about 2.1 U/mg protein”.
